Experiment [1] has as its target T1, ActRIIB(20-134)-hFc (human, UniProt Q13705 20-134).
T1 construct: not shown: linker (if any) and human Fc (hFc)
T1 sequence: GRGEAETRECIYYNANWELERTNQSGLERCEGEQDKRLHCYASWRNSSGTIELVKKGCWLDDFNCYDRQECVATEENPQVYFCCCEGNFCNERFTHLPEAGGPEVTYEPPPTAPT
Put plainly: BiaCore; receptor-Fc captured by anti-hFc antibody, ligand injected. As to the method:
Binding of certain ActRIIB-Fc proteins and GDF Traps to ligands was tested in a BiaCore™ assay.
The ActRIIB-Fc variants or wild-type protein were captured onto the system using an anti-hFc antibody. Ligands were injected and flowed over the captured receptor proteins.

Experiment [2] deals with T2, Soluble ActRIIB-Fc +15tail (human, UniProt Q13705 19-134).
T2 construct: whole entry named; not shown: linker (if any) and Fc
T2 sequence (looked up): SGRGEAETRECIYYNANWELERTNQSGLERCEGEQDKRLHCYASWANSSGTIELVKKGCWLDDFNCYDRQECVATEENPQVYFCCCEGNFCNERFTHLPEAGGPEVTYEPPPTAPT
Briefly: BiaCore; ligand coupled, receptor flowed over; +15tail construct; ligand coupled to the device, receptor flowed over (data from WO2006/012627).

For experiment [3], the target named is T1, ActRIIB(20-134)-hFc. Put plainly: Biacore; steady-state affinity fit. As to the method: The affinity of GDF Traps and other ActRIIB-hFc proteins for several ligands was evaluated in vitro with a BiacoreTM instrument. Kd values were obtained by steady-state affinity fit due to the very rapid association and dissociation of the complex, which prevented accurate determination of kₒₙ and koff.

Experimental findings from patent US20160326228A1 (ACCELERON PHARMA, published 2016) are described below.

B1: Growth and Differentiation Factor-11 (GDF11) (ligand, UniProt O95390 299-407, looked up)
chain: NLGLDCDEHSSESRCCRYPLTVDFEAFGWDWIIAPKRYKANYCSGQCEYMFMQKYPHTHLVQQANPRGSAGPCCTPTKMSPINMLYFNDKQQIIYGKIPGMVVDRCGCS
notes: also called BMP11
In experiment [1], B1 registered a Kd of 0.0842 nM, a koff of 0.000113 s⁻¹ and a kon of 1.34e+06 M⁻¹ s⁻¹. In experiment [2], this molecule had a Kd of 19 nM. Moreover, the Kd in experiment [3] came out at 0.036 nM.

By Kd is commonly meant the equilibrium constant for the complex coming apart. The low end stands for higher affinity, the high end for lower affinity. The term koff denotes the first-order rate constant of dissociation. A low value points to a long-lived complex. As a reminder, the kon is a measure of how fast the partners come together. Low readings indicate slower complex formation, high ones faster complex formation.
